Test results as given in article PMC10572819.

Columns and labels:
[1] = Western blot, HEK-293 with BAP31 siRNA; settings: glycan lost; control: WT-EpCAM
[2] = Western blot, HEK-293 co-transfected with BAP31; settings: glycan lost; control: WT-EpCAM

B1: epithelial cell-adhesion molecule (EpCAM): N76/111/198A (protein)
parent chain: MAPPQVLAFGLLLAAATATFAAAQEECVCENYKLAVNCFVNNNRQCQCTSVGAQNTVICSKLAAKCLVMKAEMNGSKLGRRAKPEGALQNNDGLYDPDCDESGLFKAKQCNGTSMCWCVNTAGVRRTDKDTEITCSERVRTYWIIIELKHKAREKPYDSKSLRTALQKEITTRYQLDPKFITSILYENNVITIDLVQNSSQKTQNDVDIADVAYYFEKDVKGESLFHSKKMDLTVNGEQLDLDPGQTLIYYVDEKAPEFSMQGLKAGVIAVIVVVVIAVVAGIVVLVISRKKRMAKYEKAEIKEMGEMHRELNA
With B1 the “other: fall in protein level on BAP31 knockdown” value [1] was “abolishes” and the “other: rise in protein level on BAP31 overexpression” value [2] was “abolishes”.
